{"source": "paper PMC3433420", "origin": "cited, not measured here", "details_in_all_cases": "cited from earlier work", "key": {"PLCG1-C (Homo sapiens) [1]": {"target": "PLCG1-C (Homo sapiens) (UniProt P19174)", "sequence (P19174 545-761)": "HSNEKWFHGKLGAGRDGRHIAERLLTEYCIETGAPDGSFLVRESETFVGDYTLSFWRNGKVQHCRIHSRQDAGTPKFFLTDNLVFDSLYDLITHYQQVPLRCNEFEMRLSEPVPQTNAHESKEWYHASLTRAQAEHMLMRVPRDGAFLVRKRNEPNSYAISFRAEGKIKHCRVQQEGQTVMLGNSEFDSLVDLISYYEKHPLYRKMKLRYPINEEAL"}, "SOCS1 (Homo sapiens)": {"target": "SOCS1 (Homo sapiens) (UniProt O15524)", "sequence (O15524 74-179)": "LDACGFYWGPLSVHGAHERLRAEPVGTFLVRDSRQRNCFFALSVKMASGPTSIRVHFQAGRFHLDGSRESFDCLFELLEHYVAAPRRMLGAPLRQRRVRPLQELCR"}, "RASA1-NC (Homo sapiens) [2]": {"target": "RASA1-NC (Homo sapiens) (UniProt P20936)", "sequence (P20936 176-446)": "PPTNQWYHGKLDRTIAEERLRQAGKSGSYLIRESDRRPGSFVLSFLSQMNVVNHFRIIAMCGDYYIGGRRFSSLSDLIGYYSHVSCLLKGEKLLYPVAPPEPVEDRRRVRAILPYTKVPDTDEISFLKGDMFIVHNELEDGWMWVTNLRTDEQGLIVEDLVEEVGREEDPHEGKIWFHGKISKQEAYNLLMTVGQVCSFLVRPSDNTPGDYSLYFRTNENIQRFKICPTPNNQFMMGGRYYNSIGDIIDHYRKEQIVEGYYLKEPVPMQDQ"}, "PIK3R1-C (Homo sapiens)": {"target": "PIK3R1-C (Homo sapiens) (UniProt P27986)", "sequence (P27986 328-723)": "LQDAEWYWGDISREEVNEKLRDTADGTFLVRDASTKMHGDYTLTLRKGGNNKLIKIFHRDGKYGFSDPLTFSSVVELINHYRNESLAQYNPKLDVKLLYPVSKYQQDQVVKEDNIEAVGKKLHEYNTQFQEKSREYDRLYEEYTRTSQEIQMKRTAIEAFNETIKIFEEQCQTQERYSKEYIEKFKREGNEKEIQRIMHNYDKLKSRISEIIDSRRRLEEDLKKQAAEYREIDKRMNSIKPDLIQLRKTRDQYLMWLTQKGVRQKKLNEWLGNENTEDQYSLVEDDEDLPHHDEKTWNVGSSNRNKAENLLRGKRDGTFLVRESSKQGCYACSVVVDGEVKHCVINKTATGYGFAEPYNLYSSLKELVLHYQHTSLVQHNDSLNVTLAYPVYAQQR"}, "BLK (Homo sapiens)": {"target": "BLK (Homo sapiens) (UniProt P51451)", "sequence (P51451 119-225)": "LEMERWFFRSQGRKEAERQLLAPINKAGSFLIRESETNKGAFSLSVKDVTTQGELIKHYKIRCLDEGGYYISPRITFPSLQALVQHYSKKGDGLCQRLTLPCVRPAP"}, "VAV3 (Homo sapiens)": {"target": "VAV3 (Homo sapiens) (UniProt Q9UKW4)", "sequence (Q9UKW4 667-771)": "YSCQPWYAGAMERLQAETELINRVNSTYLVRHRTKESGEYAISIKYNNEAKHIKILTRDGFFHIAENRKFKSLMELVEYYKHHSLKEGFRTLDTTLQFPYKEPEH"}, "PIK3R3-N (Homo sapiens)": {"target": "PIK3R3-N (Homo sapiens) (UniProt Q92569)"}, "SYK-NC (Homo sapiens)": {"target": "SYK-NC (Homo sapiens) (UniProt P43405)"}, "RASA1-NC (Homo sapiens) [3]": {"target": "RASA1-NC (Homo sapiens) (UniProt P20936)", "remark": "listed apart in the source"}, "SLA (Homo sapiens)": {"target": "SLA (Homo sapiens) (UniProt Q13239)", "sequence (Q13239 79-180)": "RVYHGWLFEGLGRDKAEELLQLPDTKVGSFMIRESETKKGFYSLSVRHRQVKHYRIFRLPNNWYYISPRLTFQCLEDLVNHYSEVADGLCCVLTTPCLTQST"}, "SHC3 (Homo sapiens)": {"target": "SHC3 (Homo sapiens) (UniProt Q92529)", "sequence (Q92529 494-594)": "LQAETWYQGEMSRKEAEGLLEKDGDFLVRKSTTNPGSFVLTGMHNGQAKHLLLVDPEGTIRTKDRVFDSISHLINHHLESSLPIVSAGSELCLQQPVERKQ"}, "ABL2 (Homo sapiens)": {"target": "ABL2 (Homo sapiens) (UniProt P42684)", "sequence (P42684 168-268)": "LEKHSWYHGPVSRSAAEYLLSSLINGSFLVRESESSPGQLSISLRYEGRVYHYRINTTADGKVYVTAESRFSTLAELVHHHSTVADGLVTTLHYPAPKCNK"}, "PIK3R2-N (Homo sapiens)": {"target": "PIK3R2-N (Homo sapiens) (UniProt O00459)", "sequence (O00459 325-721)": "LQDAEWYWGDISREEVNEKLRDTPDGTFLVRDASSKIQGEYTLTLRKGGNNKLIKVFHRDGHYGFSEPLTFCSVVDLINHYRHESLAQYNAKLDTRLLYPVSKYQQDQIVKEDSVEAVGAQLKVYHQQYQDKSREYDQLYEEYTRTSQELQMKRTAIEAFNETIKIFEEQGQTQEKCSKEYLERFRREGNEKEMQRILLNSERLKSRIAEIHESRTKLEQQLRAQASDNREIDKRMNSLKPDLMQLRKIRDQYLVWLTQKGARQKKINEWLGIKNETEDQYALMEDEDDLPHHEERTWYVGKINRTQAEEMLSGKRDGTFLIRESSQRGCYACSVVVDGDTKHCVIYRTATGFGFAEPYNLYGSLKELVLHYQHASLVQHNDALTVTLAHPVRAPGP"}, "VAV1 (Homo sapiens) [4]": {"target": "VAV1 (Homo sapiens) (UniProt P15498)", "sequence (P15498 666-770)": "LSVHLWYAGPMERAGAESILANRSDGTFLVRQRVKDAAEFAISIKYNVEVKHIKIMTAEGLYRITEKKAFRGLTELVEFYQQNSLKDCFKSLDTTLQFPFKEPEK"}, "PIK3R3-C (Homo sapiens)": {"target": "PIK3R3-C (Homo sapiens) (UniProt Q92569)"}, "GRB7 (Homo sapiens) [5]": {"target": "GRB7 (Homo sapiens) (UniProt Q14451)", "sequence (Q14451 426-532)": "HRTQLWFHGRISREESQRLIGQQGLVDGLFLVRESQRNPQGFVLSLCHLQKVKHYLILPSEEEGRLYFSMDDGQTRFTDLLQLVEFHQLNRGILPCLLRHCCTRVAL"}, "TNS4 (Homo sapiens)": {"target": "TNS4 (Homo sapiens) (UniProt Q8IZW8)", "sequence (Q8IZW8 444-561)": "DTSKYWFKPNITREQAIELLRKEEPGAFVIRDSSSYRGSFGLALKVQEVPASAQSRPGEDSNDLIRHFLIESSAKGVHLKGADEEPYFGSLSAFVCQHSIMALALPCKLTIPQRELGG"}, "PLCG1-C (Homo sapiens) [6]": {"target": "PLCG1-C (Homo sapiens) (UniProt P19174)", "remark": "listed apart in the source"}, "GRB7 (Homo sapiens) [7]": {"target": "GRB7 (Homo sapiens) (UniProt Q14451)", "remark": "listed apart in the source"}, "SYK-C (Homo sapiens)": {"target": "SYK-C (Homo sapiens) (UniProt P43405)"}, "PTPN11-N (Homo sapiens)": {"target": "PTPN11-N (Homo sapiens) (UniProt Q06124)"}, "SHC1-PTB (Homo sapiens)": {"target": "SHC1-PTB (Homo sapiens) (UniProt P29353)", "sequence (P29353 483-583)": "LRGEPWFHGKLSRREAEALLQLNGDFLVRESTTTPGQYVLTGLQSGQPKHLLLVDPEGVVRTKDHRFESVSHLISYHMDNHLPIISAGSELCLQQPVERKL"}, "PIK3R2-NC (Homo sapiens)": {"target": "PIK3R2-NC (Homo sapiens) (UniProt O00459)", "sequence (O00459 325-721)": "as the sequence (O00459 325-721) above"}, "VAV1 (Homo sapiens) [8]": {"target": "VAV1 (Homo sapiens) (UniProt P15498)", "remark": "listed apart in the source"}, "NCK1 (Homo sapiens)": {"target": "NCK1 (Homo sapiens) (UniProt P16333)"}, "GRB7 (Homo sapiens) [9]": {"target": "GRB7 (Homo sapiens) (UniProt Q14451)", "remark": "listed apart in the source"}, "SOCS2 (Homo sapiens)": {"target": "SOCS2 (Homo sapiens) (UniProt O14508)", "sequence (O14508 43-161)": "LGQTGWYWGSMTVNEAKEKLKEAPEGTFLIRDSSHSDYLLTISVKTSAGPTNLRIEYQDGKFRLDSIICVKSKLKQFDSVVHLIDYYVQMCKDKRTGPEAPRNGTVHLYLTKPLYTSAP"}, "SRC (Homo sapiens)": {"target": "SRC (Homo sapiens) (UniProt P12931)"}, "RASA1-N (Homo sapiens)": {"target": "RASA1-N (Homo sapiens) (UniProt P20936)", "sequence (P20936 176-446)": "as the sequence (P20936 176-446) above"}, "PIK3R1-NC (Homo sapiens)": {"target": "PIK3R1-NC (Homo sapiens) (UniProt P27986)", "sequence (P27986 328-723)": "as the sequence (P27986 328-723) above"}}, "note": "Read-outs that look alike come from different tables or passages of the source.", "data": [{"substance": "…pYLVPQQGF", "values": [{"measurement": "apparent Kd (screen)", "setting": "PLCG1-C (Homo sapiens) [1]", "value": 1.46, "unit": "µM"}, {"measurement": "apparent Kd (screen)", "setting": "SOCS1 (Homo sapiens)", "value": 2, "unit": "µM"}, {"measurement": "apparent Kd (screen)", "setting": "RASA1-NC (Homo sapiens) [2]", "value": 1.77, "unit": "µM"}, {"measurement": "apparent Kd (screen)", "setting": "PIK3R1-C (Homo sapiens)", "value": 2, "unit": "µM"}, {"measurement": "apparent Kd (screen)", "setting": "BLK (Homo sapiens)", "value": 0.597, "unit": "µM"}, {"measurement": "apparent Kd (screen)", "setting": "VAV3 (Homo sapiens)", "value": 2, "unit": "µM"}]}, {"substance": "…pYLIPQQGFd", "values": [{"measurement": "apparent Kd (screen)", "setting": "PIK3R3-N (Homo sapiens)", "value": 0.722, "unit": "µM"}, {"measurement": "apparent Kd (screen)", "setting": "SYK-NC (Homo sapiens)", "value": 0.534, "unit": "µM"}, {"measurement": "apparent Kd (screen)", "setting": "RASA1-NC (Homo sapiens) [3]", "value": 1.42, "unit": "µM"}, {"measurement": "apparent Kd (screen)", "setting": "SLA (Homo sapiens)", "value": 2, "unit": "µM"}, {"measurement": "apparent Kd (screen)", "setting": "SHC3 (Homo sapiens)", "value": 0.216, "unit": "µM"}, {"measurement": "apparent Kd (screen)", "setting": "ABL2 (Homo sapiens)", "value": 0.282, "unit": "µM"}, {"measurement": "apparent Kd (screen)", "setting": "PIK3R2-N (Homo sapiens)", "value": 0.425, "unit": "µM"}]}, {"substance": "…pYEEMRAFQ", "values": [{"measurement": "apparent Kd (screen)", "setting": "VAV1 (Homo sapiens) [4]", "value": 0.499, "unit": "µM"}, {"measurement": "apparent Kd (screen)", "setting": "PIK3R3-C (Homo sapiens)", "value": 0.012, "unit": "µM"}, {"measurement": "apparent Kd (screen)", "setting": "GRB7 (Homo sapiens) [5]", "value": 1.52, "unit": "µM"}, {"measurement": "apparent Kd (screen)", "setting": "TNS4 (Homo sapiens)", "value": 1.95, "unit": "µM"}, {"measurement": "apparent Kd (screen)", "setting": "PLCG1-C (Homo sapiens) [6]", "value": 0.321, "unit": "µM"}]}, {"substance": "…pYWDQDPPE", "values": [{"measurement": "apparent Kd (screen)", "setting": "GRB7 (Homo sapiens) [7]", "value": 0.253, "unit": "µM"}, {"measurement": "apparent Kd (screen)", "setting": "SYK-C (Homo sapiens)", "value": 1.97, "unit": "µM"}, {"measurement": "apparent Kd (screen)", "setting": "PTPN11-N (Homo sapiens)", "value": 2, "unit": "µM"}, {"measurement": "apparent Kd (screen)", "setting": "SHC1-PTB (Homo sapiens)", "value": 0.614, "unit": "µM"}, {"measurement": "apparent Kd (screen)", "setting": "PIK3R2-NC (Homo sapiens)", "value": 2, "unit": "µM"}, {"measurement": "apparent Kd (screen)", "setting": "VAV1 (Homo sapiens) [8]", "value": 2, "unit": "µM"}, {"measurement": "apparent Kd (screen)", "setting": "NCK1 (Homo sapiens)", "value": 2, "unit": "µM"}, {"measurement": "apparent Kd (screen)", "setting": "GRB7 (Homo sapiens) [9]", "value": 2, "unit": "µM"}, {"measurement": "apparent Kd (screen)", "setting": "SOCS2 (Homo sapiens)", "value": 2, "unit": "µM"}, {"measurement": "apparent Kd (screen)", "setting": "SRC (Homo sapiens)", "value": 2, "unit": "µM"}, {"measurement": "apparent Kd (screen)", "setting": "RASA1-N (Homo sapiens)", "value": 0.504, "unit": "µM"}, {"measurement": "apparent Kd (screen)", "setting": "PIK3R1-NC (Homo sapiens)", "value": 1.84, "unit": "µM"}]}]}
